Data from the supplement of paper PMC10567573.

B1: KLHL14 (parent)
chain: YVIGGRNETGYLSSVECYNLETNE

Variants of: B1
Experiment: protein stability index of a GFP-peptide fusion (GPS, HEK-293T) (PSI 1-6); higher = more stable
Settings: c terminus: a fixed tail appended
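Also: lentivirally expressed fusions sorted by FACS into six bins by GFP to DsRed ratio, PSI derived from sequencing read proportions per bin multiplied by bin number.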

Protein stability index: each site, then its substitutions
S14: I 2.56, E 2.91, Y 2.01, K 1.35, G 2.31, R 1.58, F 1.47, D 2.38, P 1.61, M 2.3, V 2.08, L 1.75, H 1.8, W 2.88, Q 2.5, A 1.7
G10: I 1.25, H 1.45, Q 2.29, L 2.62, A 1.88, P 1.52, Y 1.6, V 1.98, M 1.68, C 2.58, D 3.07, T 1.6, E 3.13, N 1.65
S13: G 1.81, V 1.89, A 1.65, Q 1.64, N 1.78, Y 1.79, E 2.61, D 2.76, M 1.91, P 2.6
E24: P 1.72, W 1.67, D 2.14, K 1.75, C 1.96, G 1.69, V 1.96, Q 1.49, R 2.17, A 1.64, T 1.63, F 1.95, H 1.8, N 1.99, S 2.07, I 2.19, M 1.71
V15: C 1.66, D 2.95, K 2.12, Y 1.5, A 1.76, G 2.05, H 2.24, F 1.52, E 2.69, L 1.9, S 2.5, N 2.46, W 2.21, M 1.84, Q 2.49
Y11: C 2.45, M 1.96, Q 3.1, K 2.86, P 3.71, R 2.13, S 2.42, H 2.45, L 2.2, G 2.85, N 2.83
I3: C 1.66, S 1.61, N 1.81, Q 2.06, R 1.49, D 2.39, M 2.1, G 2.4, Y 1.3, P 2.65, F 1.76, V 2.24, A 3.4, L 1.84, H 1.83, T 2.18
C17: M 1.78, V 1.48, K 2.28, N 2.44, E 2.22, D 2.82, G 2.8, F 1.66, I 2.5, L 2.56, P 2.23, A 2.06, T 2.56
G4: K 2.34, M 2.31, N 1.89, I 2.1, V 1.3, R 1.71, L 1.47, S 2.46, Q 2.55, H 2.4, E 2.11, C 1.75
L20: M 1.96, A 2.12, F 1.98, P 1.83, K 2.09, H 2.34, D 2.79, V 1.78, G 1.82, I 2.21, C 2.09, Y 2.02, W 1.55, N 2.79, E 3.04
Y1: M 3.55, H 4.61, L 2.96, N 4.25, C 3.48, T 4.71, G 4.99, A 4.43, K 4.12, Q 4.68, D 4.64, P 4.82
G5: N 1.92, I 2.24, T 2.33, V 1.49, L 2.82, W 2.92, E 3.15, D 3.12, K 1.76, A 1.71, F 2.41, S 2.31
R6: E 2.97, L 2.09, C 2.21, N 2.2, P 2.51, H 1.9, M 1.69, F 1.5, Y 1.69, A 2.93, I 1.67, K 2.05, W 1.96, S 2.35, D 2.57, V 1.87, Q 2.77
E21: Q 2.39, V 1.54, Y 2.17, A 2.66, W 3.54, P 1.93, N 1.55, T 1.68, R 1.91, C 2.61, M 1.74, L 1.67
V2: C 2.87, A 3.08, M 3.87, L 3.33, K 3.91, N 4.24, P 3.9, Q 2.7, F 3.32, E 4.59, W 2.44, T 3.5
N7: K 2.27, M 1.66, C 1.7, T 1.85, P 1.84, D 2.5, I 1.74, S 2.63, E 2.59, H 2.45, Q 1.91, Y 1.5, G 1.99, R 2.38, F 2.29, L 2.36
L12: H 1.92, R 3.28, D 3.42, Y 1.8, S 2.59, P 2.64, T 2.57, V 2.21, Q 2.42, G 2.99, C 2.32, F 1.8, M 2.33, I 2.25
N19: F 3.39, E 2.22, Y 1.76, L 2.08, Q 2, T 2.17, A 2.15, V 1.66, W 2.77, D 2.41, H 2.04, S 1.83, C 1.57, K 2.13, R 1.49, M 1.8
E8: N 1.8, Q 1.88, T 1.78, K 1.89, F 1.99, P 1.16, M 2.21, L 1.32, V 1.78, H 2.02, Y 1.84, G 2.44, W 2.08, D 1.56, A 1.45
Y18: F 2.1, D 2.77, T 2.72, R 2.6, M 2.4, I 2.5, Q 2.34, H 2.32, E 2.48, G 2.57, V 2.05
E16: V 3.5, C 2.58, K 1.28, Y 1.84, W 2.93, D 2.41, F 3.4, G 1.54, A 1.27, H 1.62, P 2.45, I 1.83, Q 1.96, M 1.45, N 2.33, L 2.09
T22: R 2.62, Y 2.06, G 1.86, D 2.07, A 2, M 1.49, V 2.6, P 1.76, S 1.4, Q 1.94, L 2.1, I 1.84, H 2.54, N 1.63
N23: S 1.86, D 2.75, T 2.15, L 1.66, A 2.06, H 1.86, C 2.45, F 1.88, Q 3.14, R 1.92, M 1.89, G 1.74, Y 1.75, W 1.74, P 1.75, I 1.56
T9: P 1.9, Y 1.58, C 1.73, M 2.37, N 1.83, Q 2, W 1.78, G 1.69, D 2.23, F 2.21, H 1.6, K 2.13
